Assay results published in patent US20110294144.

Test system: recombinant tau protein (Wako Pure Chemical Industries, Ltd.)

recombinant PRKX protein (Invitrogen)
S214 phosphorylation of tau, in vitro kinase reaction of the two recombinant proteins, Western blot: the amount of S214 phosphorylation was enhanced by the addition of ATP as compared to the control without addition of ATP
